Experimental data published in patent US20240325486A1 (TUFTS MEDICAL CENTER, published 2024).
Non-standard residues stand in square brackets, D forms with d. No end group written: not given here. Tic = O=C(O)[C@@H]1Cc2ccccc2CN1

Tests used:
[1] = target: CMKLR1 (recombinant, species not given); test: cell-based or functional assay
[2] = target: CMKLR1 (recombinant, species not given); test: cell-based or functional assay; remark: listed apart in the source

| Binder | CMKLR1 canonical Gαi signal transduction, EC50 (BSA) (no wash) [1] | CMKLR1 canonical Gαi signal transduction, EC50 (BSA) (wash × 3) [1] | CMKLR1 canonical Gαi signal transduction, EC50 (no wash) [1] | CMKLR1 canonical Gαi signal transduction, EC50 (wash × 3) [1] | β-Arrestin recruitment, EC50 [2] | β-Arrestin recruitment, Max Efficacy (% 10 µM s-Stable chem9) [2] |
| --- | --- | --- | --- | --- | --- | --- |
| [dY]FLP[dS]QF[dA][Tic]S (also: C16 (palmitic acid) lipid tail, linker and attachment not given here) [C16 lipidated stable chemerin 9 analog] | 6.4 nM | 520 nM | 2.7 nM | 18.6 nM | 3.23 nM | 165% |
| [dY]FLP[dS]QF[dA][Tic]S (also: C18:3 (linolenic acid) lipid tail, linker and attachment not given here) [C18:3 lipidated stable chemerin 9 analog] | 73.3 nM | – | 45.7 nM | 350 nM | 181 nM | 110% |
| [dY]FLP[dS]QF[dA][Tic]S (also: C10 lipid tail, linker and attachment not given here) [C10 lipidated stable chemerin 9 analog] | 17.8 nM | – | 17.8 nM | – | 23.1 nM | 98.3% |
| [dY]FLP[dS]QF[dA][Tic]S (also: C4 lipid tail, linker and attachment not given here) [C4 lipidated stable chemerin 9 analog] | 11 nM | – | 79.3 nM | – | 223 nM | 89.7% |
| [dY]FLP[dS]QF[dA][Tic]S (also: C16:1 lipid tail, linker and attachment not given here) [C16:1 lipidated stable chemerin 9 analog] | 29.5 nM | 3140 nM | 12 nM | 42.2 nM | 80.8 nM | 154% |
| [dY]FLP[dS]QF[dA][Tic]S (also: C14:1 lipid tail, linker and attachment not given here) [C14:1 lipidated stable chemerin 9 analog] | 26.2 nM | 1820 nM | 9.3 nM | 100 nM | 51.9 nM | 124% |
| [dY]FLP[dS]QF[dA][Tic]S (also: cholesterol lipid tail, linker and attachment not given here) [Cholesterol lipidated stable chemerin 9 analog] | 108 nM | 13500 nM | 84.5 nM | 445 nM | 131 nM | 149% |
| [dY]FLP[dS]QF[dA][Tic]S [s-Stable Chem (soluble stable chemerin peptide)] | 5.1 nM | – | 35.2 nM | – | 31.9 nM | 100% |
| [dY]FLP[dS]QF[dA][Tic]S (also: C18:1 lipid tail (which C18:1 acid not given here), linker and attachment not given here) [C18:1 lipidated stable chemerin 9 analog] | 12.7 nM | 2860 nM | 4.7 nM | 26.4 nM | 17.4 nM | 160% |
